Data: patent publication US20250002565A1

Target: recombinant HIV gp41 (HIV)
Test: ELISA against recombinant gp41 (in PBS)

EC50: 1.29 µg/mL
B1: recombinant class switched IgA2 antibody (antibody, V domains shown)
VH: QVQLVESGGGVVQPGRSLRLSCAASGFTFSSYAIHWVRQAPGKGLEWVAVISYDGSNRYYADSVKGRFTISRDNSKNTLYLQMNSLRPEDTAVYYCARDRFSAVASTPTYHNYFYMDVWGKGTTVTVSS
